Laboratory results as given in US20210032351A1 (XDCEXPLORER SHANGHAI, published 2021).

Columns and labels:
[1] = target: T1, human EGFRvIII-hFc protein (human, UniProt P00533 25-645); experiment: ELISA, coated EGFRvIII-hFc, antibody 1 nM
T1 construct: extracellular domain; made in HEK293 cells, purified on protein A; also called immunogen A; hFc-tagged EGFRvIII protein; not shown: human IgG Fc fragment (hFc) of the pCpC vector
In short: (§1)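 Binding of purified EGFRvIII antibody was measured on plates coated overnight at 4° C with 1.0 μg/mL EGFRvIII-hFc. After BSA blocking, antibody and then an HRP-conjugated secondary were each incubated 2 h at 37° C, and signal was taken as A450 nm.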

[2] = target: T1, human EGFRvIII-hFc protein; experiment: ELISA, coated EGFRvIII-hFc, antibody 0.1 nM
In short: as §1

[3] = target: T1, human EGFRvIII-hFc protein; experiment: ELISA, coated EGFRvIII-hFc, antibody 0.01 nM
In short: as §1

[4] = target: T2, human EGFRvIII-hFc protein (human, UniProt P00533 25-645); experiment: ELISA, EGFRvIII-hFc coated
T2 construct: extracellular domain; also called immunogen A; hFc-tagged EGFRvIII protein; not shown: human IgG Fc fragment (hFc) of the pCpC vector

[5] = target: T3, human EGFRvIII protein on the cell surface (human, UniProt P00533 25-1210); experiment: FACS on U87MG-EGFRvIII cells
T3 construct: whole, on cells; the cell line is named under assay; also called hEGFRvIII; U87MG-hEGFRvIII
In short: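 U87MG-EGFRvIII, A431 and primary human hepatocytes (2×10⁶ cells/mL, goat-serum blocked) were incubated with antibody on ice for 2 h, then with an Alexa 488 secondary (1:1000) for 1 h and fixed in 4% paraformaldehyde. Mean fluorescence intensity was read by flow cytometry, and EC50 was derived by curve fitting.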

[6] = target: T4, human wild-type EGFR protein on the cell surface (human, UniProt P00533 25-1210); experiment: FACS, MFI on A431 cells over MFI on normal primary hepatocytes; ratio of MFI on A431 to MFI on hepatocytes
T4 construct: whole, on cells; Endogenous on A431, HEB, U87MG cells and normal human primary hepatocytes; transfected on CHOk1-EGFR cells; The cell is named under assay; also called A431; HEB

Row | OD450 nm [1] | OD450 nm [2] | OD450 nm [3] | EC50 [4] | Maximum OD450 value [4] | OD450 nm at 0.0001 nM antibody [4] | OD450 nm at 0.001 nM antibody [4] | OD450 nm at 0.01 nM antibody [4] | OD450 nm at 0.1 nM antibody [4] | OD450 nm at 1 nM antibody [4] | OD450 nm at 10 nM antibody [4] | OD450 nm at 100 nM antibody [4] | EC50 [5] | Maximum mean fluorescence intensity [5] | Selective window (MFI A431/Hepatocytes) [6] | Binder
1 | 0.09 | 0.07 | 0.06 | – | – | – | – | – | – | – | – | – | – | – | – | Murine anti-75G7 (antibody, V domains shown, murine hybridoma antibody; also called 75G7C6) VH: EVQLQQSGPELVKPGASVKIPCKASGYTFTDYNMDWVKQSHGKSLEWIGDINPNNGDTIYNQKFKGKATLTVDKSSSTAYMELRSLTSEDTAVYYCARGDYDGYYPVYYAMDYWGQGTSVTVSS VL: ENVLTQSPAIMSASPGEKVTMTCRASSSVSSSYLHWYQQKSGASPKLWIFSTSNLAAGVPARFSGSGSGTSYSLTVSSVEAEDAATYYCQQYSGYPLTFGAGTKLELK
2 | – | – | – | 0.02 nM | 3.03 OD450 | 0.07 OD450 | 0.08 OD450 | 0.15 OD450 | 0.65 OD450 | 2.69 OD450 | 3.41 OD450 | 3.44 OD450 | 5.75 nM | 18100 MFI | 26.5 fold | Chimeric antibody 75G7 (antibody, human IgG1, V domains shown, also called c75G7C6; chimeric antibody c75G7C6) VH: EVQLQQSGPELVKPGASVKIPCKASGYTFTDYNMDWVKQSHGKSLEWIGDINPNNGDTIYNQKFKGKATLTVDKSSSTAYMELRSLTSEDTAVYYCARGDYDGYYPVYYAMDYWGQGTSVTVSS VL: ENVLTQSPAIMSASPGEKVTMTCRASSSVSSSYLHWYQQKSGASPKLWIFSTSNLAAGVPARFSGSGSGTSYSLTVSSVEAEDAATYYCQQYSGYPLTFGAGTKLELK
